Substrate: NC(=O)c1cnccn1
Experiment: steady-state enzyme kinetics
Assay type: biochemical, Acinetobacter baumannii

B1: AbPncA (Acinetobacter baumannii ATCC 19606 = CIP 70.34 = JCM 6841) (protein)
chain: MKMNKQPQNSALVVVDVQNGFTPGGNLAVADADTIIPTINQLAGCFENVVLTQDWHPDNHISFAANHPGKQPFETIELDYGSQVLWPKHCIQGTHDAEFHPDLNIPTAQLIIRKGFHAHIDSYSAFMEADHTTMTGLTGYLKERGIDTVYVVGIATDFCVAWTALDAVKQGFKTLVIEDACKGIDLNGSLEQAWQTMQQQGVVRIQSTDLLNEC
- Km: 106.9 µM

— PMC3465764
